Measurements: IntAct's records for PubMed 11571280

B1: Polycomb protein Pcl (Drosophila melanogaster (Fruit fly)), Q24459 (parent)
chain: MMNNHFHLQHDHPPQNVAHPFMQQPSTAVPSAPPATYGYLAQPAGQQPQWMTTTYQILPPSVGPATVAKRYYATTGPQTTHPTHPSTIQITNSFAQQSTPPKQQAATSCSPFKANNIRIISTAPSVYSLNKPPQEAHSTYAPVQSYYLPSGGGQTAGQINLLAASGTGKQLQPPPLVPVTNSTSPPSTVVLDRINICINNHYTETPTSLSSSLTTAQQPSPIIPAIQHKAILPLIDSSTADSSSCSSSSVSSSSYSGTATTSAAVVIVDEPDSTTTTPQTPPTTPEAMSSPGKSSPSPPLLATQSLLKGVNSMKPSFKTVEAAPPTPPTPPSPPPPPPAPPVAAPSPAVTYALQEDVFIKCNDGRFYLGTIIDQTSDQYLIRFDDQSEQWCEPDKLRKLGGGSSITAGGGGASTTESTNTSPSGPMCVACKRSDIEDVVEICERCGRGYHRGCTVEIVTGSGIWSCKRCAKPMKMQQPVSHKITKPAGICRQLPYHADKLSWDEKHRVNEEQIYCYCGKPGKFDHNMLQCCKCRNWFHTQCMQNFKKKLLRGDMFFVFCCTVCNNGIEFVRRMQIEWVDVLHIALYNLRKHQHQKYHHLLNDIWPFILEQRHQLPICEKWRTLPETALMERLKQTLKDYSDRFVCGREFKRAPAFYALRHSGPPHIPKVFLEPHEELSDELLEKRFKLMLMPEEPDEGANELPKRVPKDVYEFNTDEDDPVETSEDEIPIKQIIEKAKKQAAQKADKHDELPLKPDLADDNANDGDPGKLPAPIPPLLDANSSRKRKAFRLSKRYDNSRNHCDLSSDENSSSSRGTSSLDLIIPPPVNFLGRNNPFLMATPKKASQGRSISVGTGVGVNGIINSIFKLKGTSKEQPRMVRTIKRRLSAKDITIGPNQEVRRRRTRRLTTAIEVISTTTINPIPSHYLPIYAKDLQPPAPPMGKPTHGRLLRQRPQKQSPSQSRRNSTSSTATSSSSNGIGAPGHSMLDLKQSVNKYFGGAMNRIDAGEPFAIRAKRRMGNGQVQYLVEWGGDTATTAIGLLGN

Variants of: B1
Conditions: with ez_drome E(z)

Effect of a mutation on the interaction, decreasing interaction:
C430A
C430S
C517A
C517S
